In the supplement of paper PMC6379048:

Assays:
Assay in all cases: EC50 of free RNA motif oligo competing protein binding to immobilised probe
MRPS25 = MRPS25 (UniProt P82663)
In short: (§1)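 Over three biological replicates and two independent experiments, proteins captured on NHS-Sepharose beads carrying 5′-amino-C6 RNA oligos were quantified by label-free LC-MS/MS and normalised to the control. Capture lasted 30 min at 4°C and followed a 1 h pre-incubation at 4°C of HEK293-FT lysate (2.5 mg protein/well) with the same oligos in free form (0 nM to 30 μM). EC50 was taken from a four-parameter log-logistic fit, and Kd was EC50 corrected by a protein-dependent depletion factor.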

HNRNPA0 = target: T1, HNRNPA0 (UniProt Q13151)
T1 sequence: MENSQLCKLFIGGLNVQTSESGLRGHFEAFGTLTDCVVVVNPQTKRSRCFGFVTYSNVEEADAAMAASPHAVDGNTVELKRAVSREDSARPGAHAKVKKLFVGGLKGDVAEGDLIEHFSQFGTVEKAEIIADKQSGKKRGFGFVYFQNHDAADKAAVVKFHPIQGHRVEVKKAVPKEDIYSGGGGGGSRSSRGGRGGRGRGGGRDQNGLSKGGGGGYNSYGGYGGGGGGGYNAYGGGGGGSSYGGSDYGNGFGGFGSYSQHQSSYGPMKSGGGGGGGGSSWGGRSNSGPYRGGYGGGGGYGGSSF
In short: as §1

ZCRB1 = target: T2, ZCRB1 (UniProt Q8TBF4)
T2 sequence: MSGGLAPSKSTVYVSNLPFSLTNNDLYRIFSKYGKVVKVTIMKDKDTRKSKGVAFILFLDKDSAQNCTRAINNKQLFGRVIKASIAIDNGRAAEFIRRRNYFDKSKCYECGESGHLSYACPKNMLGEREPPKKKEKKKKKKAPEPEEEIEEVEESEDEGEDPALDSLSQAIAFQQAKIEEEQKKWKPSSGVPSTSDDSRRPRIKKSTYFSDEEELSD
In short: as §1

CSTF2T = target: T3, CSTF2T (UniProt Q9H0L4)
T3 sequence: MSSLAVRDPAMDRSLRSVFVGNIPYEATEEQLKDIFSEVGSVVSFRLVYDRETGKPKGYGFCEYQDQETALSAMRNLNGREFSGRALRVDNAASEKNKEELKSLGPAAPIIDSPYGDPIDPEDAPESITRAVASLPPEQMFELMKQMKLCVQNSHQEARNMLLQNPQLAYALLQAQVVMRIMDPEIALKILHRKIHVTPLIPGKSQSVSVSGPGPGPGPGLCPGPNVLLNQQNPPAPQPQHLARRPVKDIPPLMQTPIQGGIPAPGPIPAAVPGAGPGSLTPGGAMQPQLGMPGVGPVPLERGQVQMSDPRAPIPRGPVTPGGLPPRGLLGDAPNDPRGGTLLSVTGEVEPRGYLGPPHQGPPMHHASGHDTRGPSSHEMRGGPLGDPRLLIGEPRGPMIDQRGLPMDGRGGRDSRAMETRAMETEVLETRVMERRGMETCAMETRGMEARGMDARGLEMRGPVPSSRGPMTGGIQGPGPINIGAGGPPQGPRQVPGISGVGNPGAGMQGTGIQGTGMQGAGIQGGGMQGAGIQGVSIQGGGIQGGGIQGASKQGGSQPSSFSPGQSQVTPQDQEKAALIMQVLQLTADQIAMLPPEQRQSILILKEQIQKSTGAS
In short: as §1

MRPL48 = MRPL48 (UniProt Q96GC5)
In short: as §1

MRPL50 = MRPL50 (UniProt Q8N5N7)
In short: as §1

RPS14 = RPS14 (UniProt P62263)
In short: as §1

MRPL1 = MRPL1 (UniProt Q9BYD6)
In short: as §1

IGF2BP3 = IGF2BP3 (UniProt O00425)
Sequence of IGF2BP3 (O00425 whole entry): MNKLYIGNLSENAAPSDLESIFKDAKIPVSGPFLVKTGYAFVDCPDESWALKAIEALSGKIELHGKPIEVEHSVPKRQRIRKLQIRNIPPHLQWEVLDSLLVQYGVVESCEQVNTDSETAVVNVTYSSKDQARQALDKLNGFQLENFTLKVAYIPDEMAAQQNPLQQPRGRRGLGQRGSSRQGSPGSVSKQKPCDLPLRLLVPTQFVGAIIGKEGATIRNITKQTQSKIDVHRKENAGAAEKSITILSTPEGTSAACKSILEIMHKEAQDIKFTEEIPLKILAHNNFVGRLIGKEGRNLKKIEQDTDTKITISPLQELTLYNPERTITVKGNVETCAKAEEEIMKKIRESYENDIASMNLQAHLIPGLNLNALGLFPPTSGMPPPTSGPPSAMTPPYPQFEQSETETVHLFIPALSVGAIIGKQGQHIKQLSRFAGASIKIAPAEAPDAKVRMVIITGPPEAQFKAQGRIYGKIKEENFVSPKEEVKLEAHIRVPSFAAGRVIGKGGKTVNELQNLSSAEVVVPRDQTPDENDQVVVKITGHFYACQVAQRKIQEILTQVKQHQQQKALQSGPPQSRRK
In short: as §1

RPS3 = RPS3 (UniProt P23396)
In short: as §1

CXorf57 = CXorf57 (UniProt Q6NSI4)
Sequence of CXorf57 (Q6NSI4 whole entry): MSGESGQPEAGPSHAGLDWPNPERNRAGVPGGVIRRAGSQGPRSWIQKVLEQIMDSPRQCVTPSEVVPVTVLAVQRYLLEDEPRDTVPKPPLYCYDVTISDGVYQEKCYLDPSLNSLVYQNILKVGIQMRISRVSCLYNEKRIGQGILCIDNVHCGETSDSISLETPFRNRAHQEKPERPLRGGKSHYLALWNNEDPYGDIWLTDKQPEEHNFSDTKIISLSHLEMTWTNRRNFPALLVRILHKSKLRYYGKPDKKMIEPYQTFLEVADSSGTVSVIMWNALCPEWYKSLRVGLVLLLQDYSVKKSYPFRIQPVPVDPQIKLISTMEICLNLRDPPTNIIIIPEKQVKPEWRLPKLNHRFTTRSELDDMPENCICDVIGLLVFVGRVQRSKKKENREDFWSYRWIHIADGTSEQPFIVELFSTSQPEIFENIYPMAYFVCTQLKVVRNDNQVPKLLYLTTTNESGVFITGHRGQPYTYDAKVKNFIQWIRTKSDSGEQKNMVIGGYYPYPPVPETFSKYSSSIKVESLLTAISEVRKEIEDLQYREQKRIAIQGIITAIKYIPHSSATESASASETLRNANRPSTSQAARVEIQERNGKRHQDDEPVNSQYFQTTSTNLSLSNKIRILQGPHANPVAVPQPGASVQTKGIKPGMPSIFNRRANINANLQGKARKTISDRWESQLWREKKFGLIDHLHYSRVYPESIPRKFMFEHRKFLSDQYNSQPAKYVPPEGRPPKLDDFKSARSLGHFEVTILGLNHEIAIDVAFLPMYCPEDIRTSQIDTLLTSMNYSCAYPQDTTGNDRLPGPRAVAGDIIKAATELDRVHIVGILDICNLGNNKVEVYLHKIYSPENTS
In short: as §1

IFIT5 = target: T4, IFIT5 (UniProt Q13325)
T4 sequence: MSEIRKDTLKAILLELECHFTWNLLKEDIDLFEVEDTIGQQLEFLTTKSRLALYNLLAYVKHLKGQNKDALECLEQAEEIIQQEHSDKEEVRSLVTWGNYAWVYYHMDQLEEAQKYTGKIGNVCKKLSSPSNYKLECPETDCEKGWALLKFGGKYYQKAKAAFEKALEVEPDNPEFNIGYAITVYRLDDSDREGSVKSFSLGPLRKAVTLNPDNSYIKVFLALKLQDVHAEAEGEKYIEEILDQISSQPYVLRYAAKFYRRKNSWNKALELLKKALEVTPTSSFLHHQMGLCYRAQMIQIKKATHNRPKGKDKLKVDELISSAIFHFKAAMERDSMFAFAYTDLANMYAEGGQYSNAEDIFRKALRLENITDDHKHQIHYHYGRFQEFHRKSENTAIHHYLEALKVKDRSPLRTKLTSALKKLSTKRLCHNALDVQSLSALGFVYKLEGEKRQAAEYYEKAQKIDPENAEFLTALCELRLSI
In short: as §1

GPATCH11 = GPATCH11 (UniProt Q8N954)
Sequence of GPATCH11 (Q8N954 whole entry): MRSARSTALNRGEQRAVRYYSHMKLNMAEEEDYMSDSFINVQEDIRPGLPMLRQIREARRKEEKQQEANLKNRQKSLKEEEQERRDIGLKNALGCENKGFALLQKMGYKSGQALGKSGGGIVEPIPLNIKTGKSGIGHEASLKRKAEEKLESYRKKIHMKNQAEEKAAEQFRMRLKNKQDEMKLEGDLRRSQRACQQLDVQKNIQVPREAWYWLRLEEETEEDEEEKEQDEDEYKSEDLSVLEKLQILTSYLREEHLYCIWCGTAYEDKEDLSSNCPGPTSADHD
In short: as §1

UAUUUAU
EC50 (MRPS25): 17.4 nM | EC50 (HNRNPA0): 4860 nM | EC50 (ZCRB1): 3800 nM | EC50 (CSTF2T): 357 nM

CUGUCCU
EC50 (MRPL48): 177 nM | EC50 (MRPL50): 244 nM | EC50 (RPS14): 180 nM | EC50 (MRPL1): 259 nM | EC50 (IGF2BP3): 3770 nM | EC50 (RPS3): 307 nM

AAUAAA
EC50 (CXorf57): 3560 nM | EC50 (IFIT5): 1190 nM | EC50 (GPATCH11): 122 nM
